The data set has as its target T1, DnaT Y127A/W128A (Escherichia coli K12, UniProt P0A8J2 1-179, Y127A;W128A).
T1 sequence: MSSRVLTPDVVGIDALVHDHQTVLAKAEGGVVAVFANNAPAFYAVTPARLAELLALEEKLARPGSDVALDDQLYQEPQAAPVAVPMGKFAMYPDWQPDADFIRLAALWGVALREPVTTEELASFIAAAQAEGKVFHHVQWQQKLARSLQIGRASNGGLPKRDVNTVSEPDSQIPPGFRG
Briefly: fluorescence polarization; almost no detectable binding; Buffer A: 20 mM Tris-HCl pH 7.5, 40 mM NaCl, 5% v/v glycerol, 20 C; FPA 200 nM 5'-FAM DNA, Hill fit; EMSA 30 min at 20 C, gels in 0.5x TBE at 4 C. The settings on record: protein: recombinant; tags: His-MBP removed by TEV; label: 5'-FAM. A general note: In fluorescence polarisation assays a small probe gives low polarisation when free and higher when bound to something large.

B1: 5F-dT30 (ssDNA)
DNA: TTTTTTTTTTTTTTTTTTTTTTTTTTTTTT
Turning to B1, the binding result was “no binding”.
